B1: SLP65_(1-330) (domain or fragment, UniProt Q8WV28 1-330, looked up)
chain: MDKLNKITVPASQKLRQLQKMVHDIKNNEGGIMNKIKKLKVKAPPSVPRRDYASESPADEEEQWSDDFDSDYENPDEHSDSEMYVMPAEENADDSYEPPPVEQETRPVHPALPFARGEYIDNRSSQRHSPPFSKTLPSKPSWPSEKARLTSTLPALTALQKPQVPPKPKGLLEDEADYVVPVEDNDENYIHPTESSSPPPEKAPMVNRSTKPNSSTPASPPGTASGRNSGAWETKSPPPAAPSPLPRAGKKPTTPLKTTPVASQQNASSVCEEKPIPAERHRGSSHRQEAVQSPVFPPAQKQIHQKPIPLPRFTEGGNPTVDGPLPSFSS
notes: Src homology 2 domain-containing leukocyte protein of 65 kDa (SLP65, BLNK), shortened at the C-terminus, residues 1-330, lacks the C-terminal SH2 domain; also called Wildtype SLP65_(1-330); BLNK
B4: CIN85-BBB (domain or fragment)
chain: RRRRRCQVAFSYLPQNDDELELKVGDIIEVVGEVEEGWWEGVLNGKTGMFPSNFIKELSGEMKKDPLTNKAPEKPLHEVPSGNSLLSSETILRTNKRGERRRRRCQVAFSYLPQNDDELELKVGDIIEVVGEVEEGWWEGVLNGKTGMFPSNFIKELSGESDELGISQDEQLSKSSLRETTGSESDGGDSSSTKSEGANGTVATAAIQPKKVKGVGFGDIFKDKPIKLRPRSIEVENDFLPVEKTIGKKLPATTATPDSSKTEMDSRTRRRRRCQVAFSYLPQNDDELELKVGDIIEVVGEVEEGWWEGVLNGKTGMFPSNFIKELSGDFEKE

What all share (assay): ITC; multivalent SLP65 constructs with multivalent CIN85 constructs (global KD); conditions in the SI Appendix
Details in all cases: both partners purified
A general note: ITC needs no label: the signal is the heat of the interaction.

In one test the target is T1, CIN85-ABC (UniProt Q96B97 1-333).
T1 construct: also called CIN85_(1-333); wildtype-like CIN85-ABC construct
T1 sequence (looked up): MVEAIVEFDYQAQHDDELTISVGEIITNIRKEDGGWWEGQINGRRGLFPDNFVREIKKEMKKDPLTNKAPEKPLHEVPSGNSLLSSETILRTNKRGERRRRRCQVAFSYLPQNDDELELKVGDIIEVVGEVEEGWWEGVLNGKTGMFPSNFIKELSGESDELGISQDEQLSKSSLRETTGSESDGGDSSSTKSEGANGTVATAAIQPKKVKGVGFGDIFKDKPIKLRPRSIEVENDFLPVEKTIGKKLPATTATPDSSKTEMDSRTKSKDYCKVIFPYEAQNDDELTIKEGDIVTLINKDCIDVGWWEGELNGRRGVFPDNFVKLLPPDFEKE

The test “CIN85-BBB” has as its target B4.
In the test “SLP65_(1-330)” the target is B1.

The term Kd denotes the equilibrium constant for the complex coming apart. On to B1, for which, in the test with CIN85-ABC, the Kd was determined as 1360 ± 170 nM.

B2: SLP65-3xPRM4 (domain or fragment)
chain: MDKLNKITVPASQKLRQLQKMVHDIKNNEGGIMNKIKKLKVKAPPSVPRRDYASESPADEEEQWSDDFDSDYENPDEHSDSEMYVMPAEENADDSYEPPPVEQETRPVHPALPFARGEYIDNRSSQRHSPPFSKTLPSKPSWPSEKARLTSTLPALTALQKPQVPPKPKGLLEDEADYVVPVEDNDENYIHPTESSSPPPEKAPMVNRSTKPNSSTPASPPGTASGRNSGAWETKSPPPAAPSPLPRAGKKPTTPLKTTPVASQQNASSVCEEKPSPLPRHRGSSHRQEAVQSPVFPPAQKQIHQKPSPLPRFTEGGNPTVDGPLPSFSS
modifications: 1-330 is printed; the text says PRMs are six residues long. The swapped limits are assumed: PRM5 275-280 and PRM6 307-312, each replaced by PRM4 242-247. Partly Atto430LS-labelled for microscopy.
Consider B2, for which the Kd with CIN85-BBB turned out to be 140 ± 60 nM; with CIN85-ABC, 240 ± 10 nM.

B3: SLP65-R247A (domain or fragment, UniProt Q8WV28 1-330, looked up)
chain: MDKLNKITVPASQKLRQLQKMVHDIKNNEGGIMNKIKKLKVKAPPSVPRRDYASESPADEEEQWSDDFDSDYENPDEHSDSEMYVMPAEENADDSYEPPPVEQETRPVHPALPFARGEYIDNRSSQRHSPPFSKTLPSKPSWPSEKARLTSTLPALTALQKPQVPPKPKGLLEDEADYVVPVEDNDENYIHPTESSSPPPEKAPMVNRSTKPNSSTPASPPGTASGRNSGAWETKSPPPAAPSPLPAAGKKPTTPLKTTPVASQQNASSVCEEKPIPAERHRGSSHRQEAVQSPVFPPAQKQIHQKPIPLPRFTEGGNPTVDGPLPSFSS
notes: the C-terminally shortened version (1-330) was used for measurements
B3: in the test with CIN85-ABC, binding was characterised by a dissociation constant (Kd) of 7040 ± 1120 nM. In the test with SLP65_(1-330), B4 yielded a dissociation constant (Kd) of 700 ± 250 nM.

The values above are taken from paper PMC10923291, “Quantitative description of the phase-separation behavior of the multivalent SLP65–CIN85 complex” (PNAS Nexus, 2024).
